Assay results taken from doi:10.1101/2024.09.07.611787, “Molecular glues that inhibit deubiquitylase activity and inflammatory signalling” (bioRxiv, 2024).

What was measured:
[1] = target: His-tagged BRISC labelled with RED-tris-NTA dye (human) (UniProt P46736); assay: spectral shift (Dianthus); as a16, labelled His-BRISC first incubated with 100 uM FX-171-C (1% DMSO) for 15 min at RT
[2] = target: His-tagged BRISC labelled with RED-tris-NTA dye (human) (UniProt P46736); assay: spectral shift (Dianthus); as a16, labelled His-BRISC first incubated with 100 uM JMS-175-2 (1% DMSO) for 15 min at RT
[3] = target: His-tagged BRISC labelled with RED-tris-NTA dye (human) (UniProt P46736); assay: spectral shift (Dianthus); 12.5 nM RED-tris-NTA labelled His-BRISC, SHMT2(A285T) titrated 46 uM to 1.4 nM, no compound (1% DMSO); 25 mM HEPES pH 7.5, 150 mM NaCl, 1 mM DTT, 0.005% Tween-20, 25 °C; one-site total binding

- KD after incubation with FX-171-C [1]: 3600 nM
- KD after incubation with JMS-175-2 [2]: 700 nM
- Kd [3]: 400 nM
Substance: SHMT2ΔN(A285T) (residues 18–504) (from UniProt P34897 18-504) (enzyme)
